# Measured values taken from the RNAGym collection of RNA variant scans (doi:10.1073/pnas.2313332121).
# B1: TPR t1 (parent)
# chain: GACCAAUCUGCCCUCAGAGCUCGAGAACAUCUUCGGAUGCAGAGGAGGCAGGCUUCGGUGGCGCGAUAGCGCCAACGUCCUCAACCUCCAAUGCAUCCCACCACAUGAUGAUGCCUGAAGAGCCUUGGUUUUUUG
# Variants of: B1
# Experiment: polymerase ribozyme fitness, log enrichment relative to wild type (log ratio); higher = more active; in vitro selection for triplet polymerase activity
# Procedure, shortened: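 Mutant libraries of both subunits of a heterodimeric triplet polymerase ribozyme were PCR-built, transcribed, and selected once in triplicate, with frozen incubation at −7 °C and capture of gel-excised extended constructs on streptavidin beads before RT-PCR. Illumina sequencing of input and output libraries was filtered to genotypes with ≥10 input reads and ≥1 read per output. Fitness is the logarithm of genotype enrichment over wild-type enrichment, using inverse-variance-weighted replicate averages. The logarithm is base 2.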
row,Variant,polymerase ribozyme fitness (log ratio)
1,C8U C62A,-0.587
2,C8U G36U U78C C88G C101A,-3.59
3,C8A C72U U133A,-0.145
4,C8A U30C G69U A118U G120A U129G,-1.47
5,C8U G61U C88G U109A U133C,-4.61
6,C8G A27U C53U A111C C114G,-6.88
7,C8A G44U G51U U59C G77U U112C U130A,-4.84
8,C8U C12A G35U G45C C53G C104U,-6.79
9,C8A U67C,-3.31
10,C8G A27U C89G,-4.7
11,C8G C15U A18C C53A U55A C56G,-1.96
12,C8U C22G U33A A50C G57U G120U,-4.54
13,C8A C115A,0.286
14,C8G U9G C12G C49G,-0.256
15,C8U C22G G39C A41G G63A A118U,-3.78
16,C8U A103C,-4.8
17,C8U A29U C62U A83C C88G A119G,-2.75
18,C8G C12A C20U A37C U92A G113U,-1.85
19,C8A C79U C88G C102U,-2.19
20,C8G G10A C20U A24U C49U G61A C80G G120U,-7.85
21,C8U C88U A121C,1.33
22,C8U C88U,0.472
23,C8G C40A U78C,-0.518
24,C8G G45A C56U C72U C94A C101A,-2.54

row,Variant,polymerase ribozyme fitness (log ratio)
1,C8G C22G,-3.9
2,C8U G61U,0.435
3,C8G C64U G135U,0.0899
4,C8G C56A G77A,-0.27
5,C8U G44A,-0.0714
6,C8U A18U,-1.03
7,C8U C56G C80A,-1.69
8,C8G G10U G69U A95U C102A C114G U129G,-2.33
9,C8A G69A G120C,-1.1
10,C8G U9C A41C A43U G52A U112A,-0.712
11,C8A U30A A46C U109G A119U,-6.8
12,C8G U9G C22G,-3.24
13,C8A G47U C49U G110U,-3.49
14,C8U C11G G48C C56U C89U G117U,-1.01
15,C8U C70A C115U G117A,-4.95
16,C8A C123A C124U G127U,0.694
17,C8G C89A A105U,-3.66
18,C8U A43G C89G C98U G135U,-4.02
19,C8U C11G G93A,-0.424
20,C8U C62U C64A,-5.43
21,C8U G42A A111G U116A A121G C124G,-2.21
22,C8G U87A,0.833
23,C8G C13G A37C G52C C86U,-2.49
24,C8G C85U,-0.269

row,Variant,polymerase ribozyme fitness (log ratio)
1,C8G C22G G36A C85U U112A,-2.18
2,C8G A27U C104A U133A,-3.65
3,C8G U96A,0.0383
4,C8G G58C A75C A108U U132A,-5.79
5,C8G G45A G52U C53A C98U G110A G120C U129A,-6.11
6,C8G G63A,-0.627
7,C8G G45A G117A C123A U130G,0.313
8,C8U C40U C104A A119G,-1.19
9,U9A A27U G42U,-4.71
10,C8A C79G C85G,-2.78
11,C8U G71A C76A G120U,-5.96
12,C8A C72G C85A A111G U126C,-1.51
13,C8G C11U C85U U130C,-0.895
14,C8G G45C G51U G65A G113U C123U,-7.22
15,C8U G39C,0.0547
16,C8G C20U G42U A83U U116C C123A,-3.74
17,C8G C62U A118U U131C,1.45
18,C8G G47U G57A C73A C85G U106A U133A,-4.51
19,C8U U14G G17A A119G,-0.996
20,U9A A16G G93A G117A,-0.214
21,C8U G113C,-1.19
22,U9A A18U U92C,-2.53
23,C8A G44U G52A,-0.478
24,C8U U21A C22U A27G C31G C56U G60A C86A U87G C115A A121C,-5.4

row,Variant,polymerase ribozyme fitness (log ratio)
1,C8U A111C,0.776
2,C8G A18U C98U,-2.18
3,C8A C85U,-0.102
4,C8G U30C G60C,-4.49
5,C8U U96A U125G U131C,-1.53
6,C8U G69U C115A,1.59
7,C8U C72G U92A C123A,-2.13
8,C8U C15A A119G,0.435
9,C8A G19U,-2.62
10,C8A G63C C86A G93C,-3.35
11,C8G A108G,-0.714
12,C8G A46U G117C,-1.21
13,C8G C34G G39C G120U,-4.99
14,C8U U14G G60A C73U,-0.213
15,C8A U14A G110A,-1.09
16,C8G A91U,-1.17
17,C8U C22U G52U G60C,-4.56
18,U9A A26G C101G C104A G122A,-3.48
19,C8G C11U C70A C94U,-1.28
20,C8A G10C A50U C72U,-1.02
21,C8G C20U G61A C101U,-0.517
22,U9A A27C U30C C56G A111U,-4.95
23,C8U G77C,-0.262
24,C8U C72G U87G C94U G122A,-0.203

row,Variant,polymerase ribozyme fitness (log ratio)
1,C8U A43C C94U U130A,-2.21
2,C8U C31U C53U,-4.36
3,C8G G36A A121C U131G,1.28
4,C8G G25A A26G C73U G128A,-4.47
5,C8U G17U G36C G71U C82G,-4.44
6,C8G C72G C82A C102U,-1.73
7,C8U U78G C98U,-0.651
8,C8A G36U C76A U131C,-1.09
9,C8G A24G C72G C97G C115G,-4.32
10,C8G C15U G69C A90U,-3.02
11,C8G G71A C72A C102A,-3.77
12,C8U C15G A46U G113A,-5.27
13,C8U C15A A66U A118U A121C,-0.152
14,C8G G120A,1.78
15,C8G G120C,2.34
16,C8U G48U A50U G69U C86U U96A,-1.23
17,C8U G71U U78C C98U A119U,-1.03
18,C8G C34U C70A G117A U126A,-6.92
19,C8U C11U A29U C70A,-3.03
20,C8U U32C C62A G117U,-2.35
21,C8U U125A U130G,-0.351
22,C8A C124A,2.16
23,C8G C70G,-1.84
24,C8G G36C A84U C115U G122U,-1.01

row,Variant,polymerase ribozyme fitness (log ratio)
1,C8U C49U C56U C70U C98A,-6.59
2,C8U C72G A84U U87C U92G,-4.49
3,C8U G44A C104U,0.0147
4,C8U G39C C79U G120U,1.3
5,C8G C15A G51U C76U C98U,-4.46
6,C8G U32C A66U,-0.651
7,C8U G45U U59C U92A,-4.17
8,C8A U30G C115U U130G,-5.92
9,C8G C89A G117A U129A,-2.73
10,C8U G57U,-0.029
11,C8G G48C A90U U112A,0.378
12,C8U U96C,0.939
13,C8G G10U G42A G45C,-3.03
14,C8A U21A A84U,-0.224
15,C8U U59A C94U A119U,-0.404
16,C8A G61A U131C,0.52
17,C8G G10U A16C G77U U81A C85A,-3.62
18,C8U C49G,0.889
19,C8G C123A,0.956
20,C8U C72U C82A A84C A111C,0.264
21,C8U C12A G61A C79U,0.0887
22,C8U G93U C102U G120C,-1.01
23,C8G G44A G63U U125G,-2.03
24,C8U G19C G42U C62G A91G C123U,-2.98

row,Variant,polymerase ribozyme fitness (log ratio)
1,C8U C70A,-1.06
2,C8U C70U,-0.398
3,C8U C70G,-1.58
4,C8G C28A U130A,-5.09
5,C8G C49G G71A U87A C124U,0.992
6,C8U U38G G61U G93A,-4.11
7,C8G A18U G52U A90C,-1.7
8,C8G C13U G47C,-0.248
9,C8A U59C A105G C123A,-2.08
10,C8A G51U C53G U81G C114A,-5.79
11,C8G U54G C64U C89G,-4.42
12,C8U C12A A84C U116C,0.149
13,C8G G48A G128U,-2.01
14,C8G C13A A16U,0.292
15,C8A G60U,-0.464
16,C8U C22G U55C C73A C98A A111G U112A,-6.04
17,C8G C15U G48C C124G,0.169
18,C8A G61U C98A,-3.46
19,C8A U59A,-0.964
20,C8U C64A U78C C123U,-4.51
21,C8G C73A G120C,2.29
22,C8A C79U C98G C114U,-6.7
23,C8G C76A C82A C114G,-4.44
